Kd data for three sequences are collected here from the Immune Epitope Database (IEDB).

One experiment addresses HLA-B*46:01. As to the kind of experiment: IEDB peptide-MHC binding, purified MHC/competitive/fluorescence; filed as Kd, often an IC50 or EC50 that approximates it; ≥ and ≤ were set here for values at or beyond the usual limits of such assays.
The next experiment concerns the target HLA-B*27:03. Described as above.
The target in experiment [1] is HLA-A*02:01. Described as above.
The next experiment has as its target HLA-A*02:12. Described as above.
The target of a further experiment is HLA-B*18:01. The experiment is described as above.
A further experiment addresses HLA-A*24:03. Described as above.
A further experiment addresses HLA-A*02:16. The experiment is described as above. The following applies: source organism: Burkholderia vietnamiensis G4.
The target of a further experiment is HLA-A*23:01. Described as above.
The target of another experiment is HLA-B*39:01. The description is as above.
For experiment [2], the target named is HLA-A*03:01. The description is as above.
The next experiment deals with HLA-B*51:01. Described as above.
In a further experiment the target is HLA-B*15:01. Described as above.
Another experiment deals with HLA-A*02:19. Described as above.
A further experiment deals with HLA-A*02:03. The description is as above.
The target in another experiment is HLA-A*26:01. The experiment is described as above.
Another experiment deals with HLA-A*02:11. Described as above.
The target of another experiment is HLA-A*29:02. The experiment is described as above.
A further experiment addresses HLA-B*57:01. The description is as above.
The target of experiment [3] is HLA-A*69:01. The experiment can be described thus: IEDB peptide-MHC binding, purified MHC/direct/fluorescence; filed as Kd, often an IC50 or EC50 that approximates it; ≥ and ≤ were set here for values at or beyond the usual limits of such assays. The following applies: source organism: Camelpox virus M-96.
Experiment [4] addresses HLA-A*02:01. The description is as above. Conditions: source organism: Camelpox virus M-96.
The next experiment deals with HLA-A*11:01. The experiment is described as above. Conditions: source organism: Camelpox virus M-96.
In experiment [5] the target is HLA-A*03:01. The experiment is described as above. Conditions: source organism: Camelpox virus M-96.
A further experiment concerns the target HLA-A*31:01. Described as above. Conditions: source organism: Camelpox virus M-96.
For the next experiment, the target named is HLA-B*58:01. Described as above. Conditions: source organism: Camelpox virus M-96.
A further experiment deals with HLA-B*08:02. The description is as above. Conditions: source organism: Variola virus.
The target of another experiment is HLA-B*40:01. The experiment is described as above. Conditions: source organism: Camelpox virus M-96.
The target in a further experiment is HLA-A*01:01. The experiment can be described thus: IEDB peptide-MHC binding, purified MHC/competitive/fluorescence; filed as Kd, often an IC50 or EC50 that approximates it; ≥ and ≤ were set here for values at or beyond the usual limits of such assays. The following applies: source organism: Candida albicans SC5314.
The target of a further experiment is HLA-A*68:02. The description is as above.
The target of the next experiment is HLA-A*02:06. Described as above. The following applies: source organism: Candida albicans SC5314.
For the next experiment, the target named is HLA-B*07:02. Described as above. The following applies: source organism: Candida albicans SC5314.
The target in the next experiment is HLA-B*15:17. The experiment is described as above.
The next experiment has as its target HLA-A*26:02. The experiment is described as above. The following applies: source organism: Candida albicans SC5314.
The target in a further experiment is HLA-B*35:01. The experiment is described as above. Conditions: source organism: Candida albicans SC5314.
The next experiment addresses HLA-B*27:05. The experiment is described as above. The following applies: source organism: Candida albicans SC5314.
Another experiment deals with HLA-A*26:03. The description is as above. Conditions: source organism: Candida albicans SC5314.
The target of a further experiment is HLA-B*48:01. Described as above. The following applies: source organism: Candida albicans SC5314.
The target in experiment [6] is HLA-A*69:01. The description is as above. The following applies: source organism: Bacillus anthracis str. Ames.
[7] abbreviates: source organism: Burkholderia vietnamiensis G4.
Setting [8] is: source organism: Candida albicans SC5314.
[9] abbreviates: source organism: Bacillus anthracis str. Ames.

Consider GVNDTEAHA, for which the Kd with HLA-B*46:01 (setting [7]), with HLA-B*27:03 (setting [7]), with HLA-A*02:01 [1] (setting [7]), in the experiment with HLA-A*02:12 (setting [7]), with HLA-B*18:01 (setting [7]) and in the experiment with HLA-A*24:03 (setting [7]) was no less than 20 µM throughout. For the same sequence, the Kd (usually the constant that tells how readily two partners part at equilibrium) in the experiment with HLA-A*02:16 was 0.365 µM; with HLA-A*23:01 (setting [7]) it was no less than 20 µM; with HLA-B*39:01 (setting [7]), no less than 20 µM; with HLA-A*03:01 [2] (setting [7]), no less than 20 µM; with HLA-B*51:01 (setting [7]), no less than 20 µM; with HLA-B*15:01 (setting [7]) it was no less than 20 µM. Moreover, the Kd with HLA-A*02:19 (setting [7]), in the experiment with HLA-A*02:03 (setting [7]), with HLA-A*26:01 (setting [7]), in the experiment with HLA-A*02:11 (setting [7]), in the experiment with HLA-A*29:02 (setting [7]) and in the experiment with HLA-B*57:01 (setting [7]) was no less than 20 µM throughout.

With RVYNNTARY, the Kd with HLA-A*69:01 [3] was no less than 20 µM; in the experiment with HLA-A*02:01 [4], no less than 20 µM; with HLA-A*11:01, 0.0225 µM; with HLA-A*03:01 [5], 0.0507 µM; with HLA-A*31:01 it was 0.432 µM; with HLA-B*58:01 it was 0.016 µM. The Kd with HLA-B*08:02, with HLA-B*40:01, with HLA-A*01:01, with HLA-A*68:02 (setting [8]), in the experiment with HLA-A*02:06 and in the experiment with HLA-B*18:01 (setting [8]) was no less than 20 µM throughout. Moreover, the Kd with HLA-B*07:02 is no less than 20 µM; in the experiment with HLA-B*15:17 (setting [8]), 0.0015 µM; with HLA-A*26:02, 0.528 µM; with HLA-B*35:01 it was 0.159 µM; in the experiment with HLA-B*15:01 (setting [8]), 0.187 µM; in the experiment with HLA-B*27:05, no less than 20 µM. In addition, the Kd with HLA-A*26:03 is no less than 20 µM; with HLA-A*26:01 (setting [8]), 0.0768 µM; with HLA-B*48:01 it was no less than 20 µM; in the experiment with HLA-B*57:01 (setting [8]) it was 0.655 µM.

On to VILYFMYRK, for which the Kd with HLA-B*46:01 (setting [9]), with HLA-A*69:01 [6], in the experiment with HLA-B*27:03 (setting [9]), in the experiment with HLA-A*68:02 (setting [9]), with HLA-A*02:01 [1] (setting [9]) and in the experiment with HLA-A*02:12 (setting [9]) was no less than 20 µM in each case. Also, the Kd was no less than 20 µM with HLA-B*18:01 (setting [9]); no less than 20 µM in the experiment with HLA-A*24:03 (setting [9]); no less than 20 µM with HLA-A*23:01 (setting [9]); no less than 20 µM with HLA-B*15:17 (setting [9]); no less than 20 µM with HLA-B*39:01 (setting [9]); 0.528 µM in the experiment with HLA-A*03:01 [2] (setting [9]). For the same sequence, the dissociation constant Kd with HLA-B*51:01 (setting [9]), with HLA-B*15:01 (setting [9]), with HLA-A*02:19 (setting [9]), in the experiment with HLA-A*02:03 (setting [9]), with HLA-A*26:01 (setting [9]) and with HLA-A*02:11 (setting [9]) was no less than 20 µM in each case. Moreover, the Kd in the experiment with HLA-A*29:02 (setting [9]) and in the experiment with HLA-B*57:01 (setting [9]) was no less than 20 µM throughout.
